Earlier results as cited in US20110020225A1, “POROUS POLYMER PARTICLES IMMOBILIZED WITH CHARGED MOLECULES AND METHOD FOR PREPARING THE SAME” (KOREA RESEARCH INSTITUTE OF BIOSCIENCE AND BIOTECHNOLOGY, priority 2007, published 2011).

Details: negative charge at pH 7.4

B1: ovalbumin-fluorescent dye: ovalbumin-fluorescent dye (45 kDa, pI=4.6) having a negative charge at pH 7.4 (conjugate, UniProt P01012 2-386, looked up)
Ovalbumin: GSIGAASMEFCFDVFKELKVHHANENIFYCPIAIMSALAMVYLGAKDSTRTQINKVVRFDKLPGFGDSIEAQCGTSVNVHSSLRDILNQITKPNDVYSFSLASRLYAEERYPILPEYLQCVKELYRGGLEPINFQTAADQARELINSWVESQTNGIIRNVLQPSSVDSQTAMVLVNAIVFKGLWEKAFKDEDTQAMPFRVTEQESKPVQMMYQIGLFRVASMASEKMKILELPFASGTMSMLVLLPDEVSGLEQLESIINFEKLTEWTSSNVMEERKIKVYLPRMKMEEKYNLTSVLMAMGITDVFSSSANLSGISSAESLKISQAVHAAHAEINEAGREVVGSAEAGVDAASVSEEFRADHPFLFCIKHIATNAVLFFGRCVSP
modifications: fluorescent dye
- pI: 4.6
